15 molecules from patent publication EP4711384A1 (WIO Bioscience Co., Ltd., dated 2026) can be followed below.

T1: human IL-18R1 and IL-18RAP on IL-18 Reporter HEK 293 Cells (human, UniProt Q13478 19-541; O95256 20-599)
T1 sequence (looked up) 1: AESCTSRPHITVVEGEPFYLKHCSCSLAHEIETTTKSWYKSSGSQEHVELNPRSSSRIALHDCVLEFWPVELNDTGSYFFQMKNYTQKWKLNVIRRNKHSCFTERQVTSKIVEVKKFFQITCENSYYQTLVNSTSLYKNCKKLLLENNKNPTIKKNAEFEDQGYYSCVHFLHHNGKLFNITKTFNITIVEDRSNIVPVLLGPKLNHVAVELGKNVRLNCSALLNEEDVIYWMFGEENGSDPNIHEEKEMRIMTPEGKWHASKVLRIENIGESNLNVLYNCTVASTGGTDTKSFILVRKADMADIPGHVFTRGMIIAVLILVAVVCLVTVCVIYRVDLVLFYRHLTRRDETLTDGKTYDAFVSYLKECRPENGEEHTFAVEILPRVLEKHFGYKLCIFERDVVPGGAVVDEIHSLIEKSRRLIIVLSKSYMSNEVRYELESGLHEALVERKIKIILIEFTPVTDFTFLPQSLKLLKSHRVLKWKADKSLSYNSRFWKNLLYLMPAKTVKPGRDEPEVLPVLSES
T1 sequence (looked up) 2: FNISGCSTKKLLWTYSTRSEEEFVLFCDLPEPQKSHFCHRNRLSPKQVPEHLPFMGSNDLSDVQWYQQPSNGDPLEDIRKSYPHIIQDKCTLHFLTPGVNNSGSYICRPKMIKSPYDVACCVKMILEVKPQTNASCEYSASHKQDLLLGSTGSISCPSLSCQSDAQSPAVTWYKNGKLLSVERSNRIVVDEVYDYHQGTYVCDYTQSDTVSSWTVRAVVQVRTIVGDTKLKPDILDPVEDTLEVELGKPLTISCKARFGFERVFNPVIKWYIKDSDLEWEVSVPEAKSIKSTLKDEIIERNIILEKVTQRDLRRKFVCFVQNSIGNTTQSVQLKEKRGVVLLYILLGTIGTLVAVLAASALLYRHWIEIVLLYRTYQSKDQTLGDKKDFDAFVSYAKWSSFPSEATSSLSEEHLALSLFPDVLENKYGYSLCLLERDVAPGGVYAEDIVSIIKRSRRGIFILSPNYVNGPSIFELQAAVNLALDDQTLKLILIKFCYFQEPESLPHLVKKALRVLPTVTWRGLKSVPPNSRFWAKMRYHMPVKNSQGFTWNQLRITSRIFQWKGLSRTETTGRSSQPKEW

B1: hzWio-02-01-Hm1 (bispecific antibody)
chain: EVQLVESGGGLVQPGGSLRLSCAASGHAYDNACMGWFRQAPGKEREGVASIHLRDRTYYADSVKGRFTISRDNSKNTLYLQMNSLRAEDTAVYYCASSNICNALNLQGNTYWGQGTLVTVSSGGGGSEVQLLESGGGLVQPGGSLRLSCAASGYTYGPYCMGWFRQAPGKEREGVAAVGGDARTWYGNSVKGRFTISRDNSKNTLYLQMNSLRAEDTAVYYCAADFDRTVCSDDIYDYTYRGQGTLVTVSSHHHHHH
B2: hzWio-02-01-Hm10 (bispecific antibody)
chain: EVQLVESGGGLVQPGGSLRLSCAASGTAYDNACMGWFRQAPGKEREGVASHHLRDRTYYADSVKGRFTISRDNSKNTLYLQMNSLRAEDTAVYYCASSNICNALNLQGNTYWGQGTLVTVSSGGGGSEVQLLESGGGLVQPGGSLRLSCAASGYTYGPYCMGWFRQAPGKEREGVAAVGGDARTWYGNSVKGRFTISRDNSKNTLYLQMNSLRAEDTAVYYCAADFDRTVCSDDIYDYTYRGQGTLVTVSSHHHHHH
B3: hzWio-02-01-Hm6 (bispecific antibody)
chain: EVQLVESGGGLVQPGGSLRLSCAASGTAYDNHCMGWFRQAPGKEREGVASIHLRDRTYYADSVKGRFTISRDNSKNTLYLQMNSLRAEDTAVYYCASSNICNALNLQGNTYWGQGTLVTVSSGGGGSEVQLLESGGGLVQPGGSLRLSCAASGYTYGPYCMGWFRQAPGKEREGVAAVGGDARTWYGNSVKGRFTISRDNSKNTLYLQMNSLRAEDTAVYYCAADFDRTVCSDDIYDYTYRGQGTLVTVSSHHHHHH
B4: hzWio-02-01-Hm14 (bispecific antibody)
chain: EVQLVESGGGLVQPGGSLRLSCAASGTAYDNACMGWFRQAPGKEREGVASIHLRDHTYYADSVKGRFTISRDNSKNTLYLQMNSLRAEDTAVYYCASSNICNALNLQGNTYWGQGTLVTVSSGGGGSEVQLLESGGGLVQPGGSLRLSCAASGYTYGPYCMGWFRQAPGKEREGVAAVGGDARTWYGNSVKGRFTISRDNSKNTLYLQMNSLRAEDTAVYYCAADFDRTVCSDDIYDYTYRGQGTLVTVSSHHHHHH
B5: hzWio-02-01-Hm7 (bispecific antibody)
chain: EVQLVESGGGLVQPGGSLRLSCAASGTAYDNACHGWFRQAPGKEREGVASIHLRDRTYYADSVKGRFTISRDNSKNTLYLQMNSLRAEDTAVYYCASSNICNALNLQGNTYWGQGTLVTVSSGGGGSEVQLLESGGGLVQPGGSLRLSCAASGYTYGPYCMGWFRQAPGKEREGVAAVGGDARTWYGNSVKGRFTISRDNSKNTLYLQMNSLRAEDTAVYYCAADFDRTVCSDDIYDYTYRGQGTLVTVSSHHHHHH
B6: hzWio-02-01-Hm9 (bispecific antibody)
chain: EVQLVESGGGLVQPGGSLRLSCAASGTAYDNACMGWFRQAPGKEREGVAHIHLRDRTYYADSVKGRFTISRDNSKNTLYLQMNSLRAEDTAVYYCASSNICNALNLQGNTYWGQGTLVTVSSGGGGSEVQLLESGGGLVQPGGSLRLSCAASGYTYGPYCMGWFRQAPGKEREGVAAVGGDARTWYGNSVKGRFTISRDNSKNTLYLQMNSLRAEDTAVYYCAADFDRTVCSDDIYDYTYRGQGTLVTVSSHHHHHH
B7: hzWio-02-01-Hm12 (bispecific antibody)
chain: EVQLVESGGGLVQPGGSLRLSCAASGTAYDNACMGWFRQAPGKEREGVASIHLHDRTYYADSVKGRFTISRDNSKNTLYLQMNSLRAEDTAVYYCASSNICNALNLQGNTYWGQGTLVTVSSGGGGSEVQLLESGGGLVQPGGSLRLSCAASGYTYGPYCMGWFRQAPGKEREGVAAVGGDARTWYGNSVKGRFTISRDNSKNTLYLQMNSLRAEDTAVYYCAADFDRTVCSDDIYDYTYRGQGTLVTVSSHHHHHH
B8: hzWio-02-01-Hm8 (bispecific antibody)
chain: EVQLVESGGGLVQPGGSLRLSCAASGTAYDNACMHWFRQAPGKEREGVASIHLRDRTYYADSVKGRFTISRDNSKNTLYLQMNSLRAEDTAVYYCASSNICNALNLQGNTYWGQGTLVTVSSGGGGSEVQLLESGGGLVQPGGSLRLSCAASGYTYGPYCMGWFRQAPGKEREGVAAVGGDARTWYGNSVKGRFTISRDNSKNTLYLQMNSLRAEDTAVYYCAADFDRTVCSDDIYDYTYRGQGTLVTVSSHHHHHH
B9: hzWio-02-01-Hm15 (bispecific antibody)
chain: EVQLVESGGGLVQPGGSLRLSCAASGTAYDNACMGWFRQAPGKEREGVASIHLRDRHYYADSVKGRFTISRDNSKNTLYLQMNSLRAEDTAVYYCASSNICNALNLQGNTYWGQGTLVTVSSGGGGSEVQLLESGGGLVQPGGSLRLSCAASGYTYGPYCMGWFRQAPGKEREGVAAVGGDARTWYGNSVKGRFTISRDNSKNTLYLQMNSLRAEDTAVYYCAADFDRTVCSDDIYDYTYRGQGTLVTVSSHHHHHH
B10: hzWio-02-01-Hm2 (bispecific antibody)
chain: EVQLVESGGGLVQPGGSLRLSCAASGTHYDNACMGWFRQAPGKEREGVASIHLRDRTYYADSVKGRFTISRDNSKNTLYLQMNSLRAEDTAVYYCASSNICNALNLQGNTYWGQGTLVTVSSGGGGSEVQLLESGGGLVQPGGSLRLSCAASGYTYGPYCMGWFRQAPGKEREGVAAVGGDARTWYGNSVKGRFTISRDNSKNTLYLQMNSLRAEDTAVYYCAADFDRTVCSDDIYDYTYRGQGTLVTVSSHHHHHH
B11: hzWio-02-01-Hm11 (bispecific antibody)
chain: EVQLVESGGGLVQPGGSLRLSCAASGTAYDNACMGWFRQAPGKEREGVASIHHRDRTYYADSVKGRFTISRDNSKNTLYLQMNSLRAEDTAVYYCASSNICNALNLQGNTYWGQGTLVTVSSGGGGSEVQLLESGGGLVQPGGSLRLSCAASGYTYGPYCMGWFRQAPGKEREGVAAVGGDARTWYGNSVKGRFTISRDNSKNTLYLQMNSLRAEDTAVYYCAADFDRTVCSDDIYDYTYRGQGTLVTVSSHHHHHH
B12: hzWio-02-01-Hm5 (bispecific antibody)
chain: EVQLVESGGGLVQPGGSLRLSCAASGTAYDHACMGWFRQAPGKEREGVASIHLRDRTYYADSVKGRFTISRDNSKNTLYLQMNSLRAEDTAVYYCASSNICNALNLQGNTYWGQGTLVTVSSGGGGSEVQLLESGGGLVQPGGSLRLSCAASGYTYGPYCMGWFRQAPGKEREGVAAVGGDARTWYGNSVKGRFTISRDNSKNTLYLQMNSLRAEDTAVYYCAADFDRTVCSDDIYDYTYRGQGTLVTVSSHHHHHH
B13: hzWio-02-01-Hm4 (bispecific antibody)
chain: EVQLVESGGGLVQPGGSLRLSCAASGTAYHNACMGWFRQAPGKEREGVASIHLRDRTYYADSVKGRFTISRDNSKNTLYLQMNSLRAEDTAVYYCASSNICNALNLQGNTYWGQGTLVTVSSGGGGSEVQLLESGGGLVQPGGSLRLSCAASGYTYGPYCMGWFRQAPGKEREGVAAVGGDARTWYGNSVKGRFTISRDNSKNTLYLQMNSLRAEDTAVYYCAADFDRTVCSDDIYDYTYRGQGTLVTVSSHHHHHH
B14: hzWio-02-01-Hm3 (bispecific antibody)
chain: EVQLVESGGGLVQPGGSLRLSCAASGTAHDNACMGWFRQAPGKEREGVASIHLRDRTYYADSVKGRFTISRDNSKNTLYLQMNSLRAEDTAVYYCASSNICNALNLQGNTYWGQGTLVTVSSGGGGSEVQLLESGGGLVQPGGSLRLSCAASGYTYGPYCMGWFRQAPGKEREGVAAVGGDARTWYGNSVKGRFTISRDNSKNTLYLQMNSLRAEDTAVYYCAADFDRTVCSDDIYDYTYRGQGTLVTVSSHHHHHH
B15: hzWio-02-01-Hm13 (bispecific antibody)
chain: EVQLVESGGGLVQPGGSLRLSCAASGTAYDNACMGWFRQAPGKEREGVASIHLRHRTYYADSVKGRFTISRDNSKNTLYLQMNSLRAEDTAVYYCASSNICNALNLQGNTYWGQGTLVTVSSGGGGSEVQLLESGGGLVQPGGSLRLSCAASGYTYGPYCMGWFRQAPGKEREGVAAVGGDARTWYGNSVKGRFTISRDNSKNTLYLQMNSLRAEDTAVYYCAADFDRTVCSDDIYDYTYRGQGTLVTVSSHHHHHH

For the assay, the target named is T1, human IL-18R1 and IL-18RAP on IL-18 …. The assay can be described thus: cell-based or functional assay.
For orientation: EC50 means the midpoint of the concentration-response curve. Read a high EC50 as lower potency in that assay. On to B1, for which the EC50 was found to be 1.25 ng/mL and the Top530nm amounted to 0.909.
The like results for B2 were, in that order, 1.27 ng/mL and 1.1.
Consider B3, for which the response was half-maximal at 1.08 ng/mL (EC50) and the Top530nm stood at 0.894.
The like results for B4 were, in that order, 1.26 ng/mL and 1.25.
Molecule B5 gave an EC50 of 1.12 ng/mL and a Top530nm of 1.03.
Regarding B6, the EC50 came out at 2.14 ng/mL and the Top530nm was 0.9.
The like results for B7 were, in that order, 0.68 ng/mL and 1.17.
The like results for B8 were, in that order, 1.01 ng/mL and 1.51.
The molecule B9 had an EC50 of 1.54 ng/mL and a Top530nm of 1.13.
The like results for B10 were, in that order, 2.27 ng/mL and 1.1.
The like results for B11 were, in that order, 1.42 ng/mL and 1.02.
The like results for B12 were, in that order, 1.11 ng/mL and 1.01.
In turn, B13 yielded an EC50 of 0.941 ng/mL and a Top530nm of 1.08.
The like results for B14 were, in that order, 1.14 ng/mL and 1.08.
The like results for B15 were, in that order, 1.12 ng/mL and 1.22.
